Measured values published in US20170152307A1.

Columns and labels:
[1] = target: recombinant tau (human), P10636; assay: ELISA, recombinant tau coated on the plate, IgG titrated (Example 7); settings: remark: other sources report otherwise
tau 48-71 (human) = assay: peptide ELISA, biotinylated peptide on streptavidin plate, IgG titrated (Example 14); settings: remark: other sources report otherwise
tau 48-71 (human), sequence (peptide, as listed by the source limits assumed, form in doubt): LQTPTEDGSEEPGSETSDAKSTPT

recombinant tau (human), P10636, sequence (P10636 other isoform, or with tags, fused parts or gaps limits assumed): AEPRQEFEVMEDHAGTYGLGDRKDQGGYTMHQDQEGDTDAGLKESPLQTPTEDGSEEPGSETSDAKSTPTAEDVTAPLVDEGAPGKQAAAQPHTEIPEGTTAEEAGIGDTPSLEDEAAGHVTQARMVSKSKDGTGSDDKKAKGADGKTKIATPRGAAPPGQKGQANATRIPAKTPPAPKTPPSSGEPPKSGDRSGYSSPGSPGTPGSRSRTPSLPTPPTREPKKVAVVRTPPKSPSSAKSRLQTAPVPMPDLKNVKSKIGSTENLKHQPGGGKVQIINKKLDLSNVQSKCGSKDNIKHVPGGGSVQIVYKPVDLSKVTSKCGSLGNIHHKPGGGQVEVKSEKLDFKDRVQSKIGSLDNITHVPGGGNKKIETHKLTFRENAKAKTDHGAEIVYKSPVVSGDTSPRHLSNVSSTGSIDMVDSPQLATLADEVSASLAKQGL

- EC50 (read off the curve) [1]: 0.008 µg/mL
- EC50 (read off the curve) (tau 48-71 (human)): 0.06 µg/mL
B1: CBTAU-28.1 (antibody, human IgG1, V domains shown)
VH: QVQLQQSGAEVKKPGESLKISCEASGYSFTNYWIGWVRQMPGKGLEWMGIIYPGDSDTRYSPPFQGQVTITADRSITTAYLEWSSLKASDTAMYYCARVGRPSKGGWFDPWGQGTLVTVSS
VL: DIQMTQSPDSLAVSLGERATINCESSQTLLYSSNEKNYLAWYQQKPGQPPKLLISWASTPESGVPDRFSGSGSGTSFTLTISSLQAEDVAVYYCQQYYNSPYTFGQGTRLEIK
